Data as given in patent US7951572B2, “Construction of gold nanoparticle-based peptide chip, and assaying enzyme activity and inhibitor effect using secondary ion mass spectrometric analysis thereof” (Korea Advanced Institute of Science and Technology, priority 2006, dated 2011).

How the values were obtained:
PKA kinase = PKA kinase (Homo sapiens, UniProt P17612); test: Quantitative analysis of inhibitory reaction against kinase on gold nanoparticle-peptide chip by secondary ion mass spectrometry; type: biochemical; details: ATP 10 μM, kinase 1 U, 30° C. for 2 hours, non-linear regression
Protocol: As one example for analyzing an inhibitory reaction against kinase activity, the effect of 4-cyano-3-methylisoquinoline (CMIQ, Sigma), an inhibitor against PKA kinase, was illustrated.
After silicon rubber having circular holes (3 mm diameter and 1 mm height) was attached to the surface of a slide glass (75×25 mm) consisting of a glass substrate, a gold nanoparticle-peptide chip was constructed in each of the holes according to the method of Examples 1-(3).
CMIQ was dissolved in a minimum amount of distilled water to prepare solutions having varying CMIP concentrations of 0.1 nM, 0.5 nM, 1 nM, 5 nM, 10 nM, 50 nM, 100 nM, 500 nM, 1 μM and 5 μM, and each of the solutions was mixed with kinase, was introduced into the gold nanoparticle-peptide chip formed in the holes and was allowed to react at 30° C. for 2 hours. In this reaction, the concentration of ATP was 10 μM, and the concentration of kinase used was 1 U. Since the amount of the peptide attached to the surface would generally be constant, the ATP and kinase concentrations were determined as concentrations at which the maximum enzyme reaction occurred.
The choice of the peaks before and after phosphorylation is not limited thereto, and peaks changed by phosphorylation as shown in FIG. 2 may all be applied. […]
More specifically, the values of Ap1 and Ap2 in the two reference samples, that is, the gold nanoparticle-peptide chip before treatment with kinase and the gold nanoparticle-peptide chip after phosphorylation, would be different depending on the intensity of ions. Thus, to correct this difference, percent phosphorylation was calculated according to the following equation 1: […]
In order to calculate percent inhibition, substitution from the percent phosphorylation value calculated in the equation 1 is made. […] More specifically, after the phosphorylation level at each concentration of the inhibitor is calculated, percent inhibition can be calculated according to the following equation 2: […]

[1] = test system: T1, Ac-IYAAPKKGGGGC (SEQ ID NO: 8)
T1 sequence: IYAAPKKGGGGC

[2] = test system: T2, Ac-LRRASLGGGGC (SEQ ID NO: 9)
T2 sequence: LRRASLGGGGC

Row | Molecule | n (exponent of equation 3) (PKA kinase) | IC50 (PKA kinase; equation 3) | Imax (percent inhibition at which the maximum inhibitory effect of the inhibitor occurs) (PKA kinase; equation 3) | SIMS chemical imaging of the phosphorylated peptide ion on microarray spots (2 nM Abl, 100 uM ATP) [1] | change of the peptide mass peak (SIMS) on a chip carrying both peptides [1] | phosphorylation of the chip-bound peptide, seen as a mass change in secondary ion mass spectrometry [1] | SIMS chemical imaging of the phosphorylated peptide ion on microarray spots [2] | change of the peptide mass peak (SIMS) on a chip carrying both peptides [2] | SIMS chemical imaging of the phosphorylated peptide ion on microarray spots [1] | SIMS chemical imaging of the phosphorylated peptide ion on microarray spots (50 nM PKA, 100 uM ATP) [2]
1 | Cc1ncc2ccccc2c1C#N [CMIQ, 4-cyano-3-methylisoquinoline] | 0.9996 | ~87 nM | 100% |  |  |  |  |  |  | 
2 | Abl kinase (Calbiochem) |  |  |  | kinase-treated spots (line 1 and 2) yielded strong ion mass images (i.e. [PAblH-SH-COOH+HPO3]+ or [PPKAH-SH-COOH+HPO3]+) | only the mass signals of peptides specific for the kinases were changed | the phosphorylation of the peptide occurred | No cross-images of kinases against opposite peptides were observed | the AbI kinase and the PKA kinase did not influence the mass peaks of other peptides |  | 
3 | PKA kinase |  |  |  |  | the AbI kinase and the PKA kinase did not influence the mass peaks of other peptides |  |  | only the mass signals of peptides specific for the kinases were changed | No cross-images of kinases against opposite peptides were observed | kinase-treated spots (line 1 and 2) yielded strong ion mass images (i.e. [PAblH-SH-COOH+HPO3]+ or [PPKAH-SH-COOH+HPO3]+)
